Data: publication PMC9606253

Legend:
[1] = molecular target: SMARCA4 (mouse (endogenous in mouse brain)) (UniProt Q3TKT4); assay: co-IP; three successive immunodepletions of adult Brwd1^FLAG-HA brain nuclear extract with antibodies to SMARCA4 or SS18L1 or IgG; signal left in the final flow-through by blot densitometry, normalised to IgG
[2] = molecular target: SS18L1 (mouse (endogenous in mouse brain)) (UniProt Q8BW22); assay: as above
[3] = molecular target: SS18 (mouse (endogenous in mouse brain)) (UniProt Q62280); assay: co-IP; three successive immunodepletions of E17.5 Brwd1^FLAG-HA brain nuclear extract with antibodies to SMARCA4, SS18 or SS18L1 or IgG; signal left in the final flow-through by blot densitometry, normalised to IgG
Chain of SS18 (mouse (endogenous in mouse brain)) (Q62280 whole entry): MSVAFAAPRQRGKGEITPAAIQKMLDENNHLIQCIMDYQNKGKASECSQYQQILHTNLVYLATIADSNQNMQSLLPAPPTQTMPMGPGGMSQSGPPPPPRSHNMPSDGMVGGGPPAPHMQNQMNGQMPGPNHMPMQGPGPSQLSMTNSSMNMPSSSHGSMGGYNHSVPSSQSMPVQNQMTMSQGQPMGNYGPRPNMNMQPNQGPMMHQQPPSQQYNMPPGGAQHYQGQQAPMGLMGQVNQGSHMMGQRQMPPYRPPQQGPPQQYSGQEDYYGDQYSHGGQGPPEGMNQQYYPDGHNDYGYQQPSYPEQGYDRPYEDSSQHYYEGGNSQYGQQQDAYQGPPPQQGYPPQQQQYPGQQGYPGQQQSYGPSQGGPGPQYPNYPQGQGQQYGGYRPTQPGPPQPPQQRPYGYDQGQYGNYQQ

[4] = molecular target: SMARCA4 (mouse (endogenous in mouse brain)) (UniProt Q3TKT4); assay: co-IP; brain nuclear extract partially denatured with 0, 0.25, 0.5, 1, 2 or 4 M urea (15 min, room temperature), dialysed, then IP with anti-SMARCA4 (BRG1 H-10) or mouse IgG; bound protein normalised to immunoprecipitated SMARCA4 (n = 3)

Chain of SMARCA4 (mouse (endogenous in mouse brain)) (Q3TKT4 whole entry): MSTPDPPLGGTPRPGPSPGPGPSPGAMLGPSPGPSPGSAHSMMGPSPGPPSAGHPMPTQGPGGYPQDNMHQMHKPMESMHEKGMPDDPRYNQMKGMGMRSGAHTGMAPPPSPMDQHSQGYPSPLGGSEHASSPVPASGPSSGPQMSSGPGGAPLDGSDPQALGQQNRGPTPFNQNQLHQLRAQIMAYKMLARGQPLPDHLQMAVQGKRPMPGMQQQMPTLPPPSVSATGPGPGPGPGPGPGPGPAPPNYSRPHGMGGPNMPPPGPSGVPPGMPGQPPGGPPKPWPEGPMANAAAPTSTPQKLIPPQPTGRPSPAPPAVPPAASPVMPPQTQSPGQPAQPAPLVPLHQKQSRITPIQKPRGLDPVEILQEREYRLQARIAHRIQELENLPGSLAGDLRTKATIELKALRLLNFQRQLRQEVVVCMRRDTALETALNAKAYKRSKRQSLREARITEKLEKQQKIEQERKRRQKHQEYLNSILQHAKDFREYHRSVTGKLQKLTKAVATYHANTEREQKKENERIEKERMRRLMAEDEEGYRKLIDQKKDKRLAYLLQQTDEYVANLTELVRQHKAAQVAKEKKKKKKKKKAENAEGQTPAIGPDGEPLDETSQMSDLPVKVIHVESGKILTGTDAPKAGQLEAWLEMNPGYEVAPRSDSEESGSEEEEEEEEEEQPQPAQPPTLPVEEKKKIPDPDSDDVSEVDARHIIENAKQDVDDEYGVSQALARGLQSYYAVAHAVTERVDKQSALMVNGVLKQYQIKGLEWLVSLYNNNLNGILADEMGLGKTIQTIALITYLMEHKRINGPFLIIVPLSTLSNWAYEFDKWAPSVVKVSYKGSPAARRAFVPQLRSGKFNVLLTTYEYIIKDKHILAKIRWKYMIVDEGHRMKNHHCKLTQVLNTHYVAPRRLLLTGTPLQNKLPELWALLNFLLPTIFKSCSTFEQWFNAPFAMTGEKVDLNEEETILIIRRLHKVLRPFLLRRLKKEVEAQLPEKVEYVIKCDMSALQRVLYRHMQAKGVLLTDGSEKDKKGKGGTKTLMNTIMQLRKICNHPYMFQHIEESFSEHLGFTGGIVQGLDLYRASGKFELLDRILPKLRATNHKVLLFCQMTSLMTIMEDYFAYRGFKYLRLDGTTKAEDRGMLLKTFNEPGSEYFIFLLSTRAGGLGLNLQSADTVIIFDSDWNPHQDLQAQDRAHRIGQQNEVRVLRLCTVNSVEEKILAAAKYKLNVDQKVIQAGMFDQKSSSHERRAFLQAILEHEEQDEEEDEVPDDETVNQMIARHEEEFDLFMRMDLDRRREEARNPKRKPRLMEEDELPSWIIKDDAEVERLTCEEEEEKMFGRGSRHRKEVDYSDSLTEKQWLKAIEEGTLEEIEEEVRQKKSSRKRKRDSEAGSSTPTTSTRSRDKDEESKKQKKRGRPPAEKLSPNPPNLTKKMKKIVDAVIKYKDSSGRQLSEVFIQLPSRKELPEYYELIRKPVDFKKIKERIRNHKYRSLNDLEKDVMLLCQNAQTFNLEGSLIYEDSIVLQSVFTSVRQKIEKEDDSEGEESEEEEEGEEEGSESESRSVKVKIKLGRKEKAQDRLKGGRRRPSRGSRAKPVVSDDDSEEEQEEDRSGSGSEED
Chain of BRWD1-FLAG-HA, Q921C3 1-2304 (natural protein) (Q921C3 whole entry): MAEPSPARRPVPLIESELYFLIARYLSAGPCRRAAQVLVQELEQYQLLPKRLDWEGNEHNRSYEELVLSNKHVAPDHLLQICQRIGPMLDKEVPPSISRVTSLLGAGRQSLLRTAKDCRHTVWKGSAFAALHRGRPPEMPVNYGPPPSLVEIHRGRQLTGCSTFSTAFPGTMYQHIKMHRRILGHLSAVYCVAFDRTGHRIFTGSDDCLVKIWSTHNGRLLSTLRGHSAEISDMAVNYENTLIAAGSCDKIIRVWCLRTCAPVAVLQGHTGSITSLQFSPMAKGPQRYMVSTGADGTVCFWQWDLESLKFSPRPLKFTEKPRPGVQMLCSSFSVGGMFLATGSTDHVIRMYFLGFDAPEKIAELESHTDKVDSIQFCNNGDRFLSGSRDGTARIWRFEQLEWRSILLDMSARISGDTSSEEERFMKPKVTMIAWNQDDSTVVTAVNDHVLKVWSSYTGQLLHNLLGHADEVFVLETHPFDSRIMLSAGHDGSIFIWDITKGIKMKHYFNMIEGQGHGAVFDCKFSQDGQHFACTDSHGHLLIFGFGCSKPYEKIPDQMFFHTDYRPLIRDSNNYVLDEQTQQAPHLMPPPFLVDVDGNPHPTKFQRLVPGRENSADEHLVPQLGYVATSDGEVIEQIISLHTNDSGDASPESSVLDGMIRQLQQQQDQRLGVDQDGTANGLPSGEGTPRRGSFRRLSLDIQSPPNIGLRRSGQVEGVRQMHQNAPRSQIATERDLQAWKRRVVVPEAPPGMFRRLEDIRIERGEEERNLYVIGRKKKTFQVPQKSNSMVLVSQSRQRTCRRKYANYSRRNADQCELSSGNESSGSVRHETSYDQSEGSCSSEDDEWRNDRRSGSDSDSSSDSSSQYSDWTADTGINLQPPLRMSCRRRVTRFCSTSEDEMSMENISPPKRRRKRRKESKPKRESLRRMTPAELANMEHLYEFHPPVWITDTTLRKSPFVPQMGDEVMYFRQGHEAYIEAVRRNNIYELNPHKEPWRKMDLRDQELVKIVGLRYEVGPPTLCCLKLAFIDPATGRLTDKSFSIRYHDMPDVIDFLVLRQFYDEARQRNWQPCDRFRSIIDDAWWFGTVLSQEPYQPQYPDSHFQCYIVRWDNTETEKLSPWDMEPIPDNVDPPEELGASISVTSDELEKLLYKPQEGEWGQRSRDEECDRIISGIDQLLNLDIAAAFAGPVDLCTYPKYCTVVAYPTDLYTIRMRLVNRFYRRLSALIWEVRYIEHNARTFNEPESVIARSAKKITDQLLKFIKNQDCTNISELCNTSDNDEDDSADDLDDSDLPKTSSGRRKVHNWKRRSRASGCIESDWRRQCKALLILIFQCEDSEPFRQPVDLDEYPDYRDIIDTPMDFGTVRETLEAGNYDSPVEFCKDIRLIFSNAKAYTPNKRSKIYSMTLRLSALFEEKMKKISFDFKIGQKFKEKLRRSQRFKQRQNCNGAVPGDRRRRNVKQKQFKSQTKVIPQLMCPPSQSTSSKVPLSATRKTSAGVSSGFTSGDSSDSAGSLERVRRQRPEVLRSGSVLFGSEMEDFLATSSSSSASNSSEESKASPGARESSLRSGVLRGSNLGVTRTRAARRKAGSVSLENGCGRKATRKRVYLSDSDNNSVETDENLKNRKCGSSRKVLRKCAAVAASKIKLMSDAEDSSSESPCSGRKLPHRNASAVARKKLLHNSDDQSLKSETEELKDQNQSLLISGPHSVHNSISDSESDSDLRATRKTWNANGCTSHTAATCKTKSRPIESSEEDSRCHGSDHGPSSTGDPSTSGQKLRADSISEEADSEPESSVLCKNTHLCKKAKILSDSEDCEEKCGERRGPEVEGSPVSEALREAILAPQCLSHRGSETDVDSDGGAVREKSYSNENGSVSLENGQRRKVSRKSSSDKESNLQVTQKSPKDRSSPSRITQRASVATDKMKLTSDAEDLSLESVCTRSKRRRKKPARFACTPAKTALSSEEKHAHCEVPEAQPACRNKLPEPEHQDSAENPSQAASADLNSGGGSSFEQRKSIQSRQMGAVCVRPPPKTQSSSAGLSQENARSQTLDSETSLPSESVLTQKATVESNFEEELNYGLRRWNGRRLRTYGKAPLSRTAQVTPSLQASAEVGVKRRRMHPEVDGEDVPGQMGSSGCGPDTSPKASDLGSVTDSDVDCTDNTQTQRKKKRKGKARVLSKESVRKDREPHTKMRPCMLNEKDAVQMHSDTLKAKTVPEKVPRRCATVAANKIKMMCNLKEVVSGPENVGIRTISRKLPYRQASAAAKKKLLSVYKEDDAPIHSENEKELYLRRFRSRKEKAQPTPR
Chain of SS18L1 (mouse (endogenous in mouse brain)) (Q8BW22 whole entry): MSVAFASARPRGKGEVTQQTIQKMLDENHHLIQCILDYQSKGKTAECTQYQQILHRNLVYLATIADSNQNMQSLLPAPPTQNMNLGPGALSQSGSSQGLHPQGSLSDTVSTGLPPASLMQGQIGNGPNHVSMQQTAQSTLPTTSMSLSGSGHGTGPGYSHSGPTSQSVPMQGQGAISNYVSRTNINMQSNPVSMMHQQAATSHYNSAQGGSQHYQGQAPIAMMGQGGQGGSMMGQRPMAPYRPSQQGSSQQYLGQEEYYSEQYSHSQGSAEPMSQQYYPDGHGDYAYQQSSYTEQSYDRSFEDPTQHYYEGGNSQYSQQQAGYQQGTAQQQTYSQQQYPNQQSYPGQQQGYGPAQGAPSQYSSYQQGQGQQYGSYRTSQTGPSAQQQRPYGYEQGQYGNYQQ

percent co-depleted [1]: 20%
percent co-depleted [2]: 20%
percent co-depleted [3]: 20%
percent destabilized in 0.5 M urea [4]: 60%
percent remaining bound through 4 M urea [4]: 40%
Substance: BRWD1-FLAG-HA, Q921C3 1-2304 (natural protein)
